Measured values published in article PMC3817195, “Crystal Structure of a Four-Layer Aggregate of Engineered TMV CP Implies the Importance of Terminal Residues for Oligomer Assembly” (PLoS ONE, 2013).

B1: N-His-TMV CP^19 (tobacco mosaic virus coat protein, N-terminal six-His tag, C-terminal residues 155-158 truncated) (domain or fragment)
chain: SYSITTPSQFVFLSSAWADPIELINLCTNALGNQFQTQQARTVVQRQFSEVWKPSPQVTVRFPDSDFKVYRYNAVLDPLVTALLGAFDTRNRIIEVENQANPTTAETLDATRRVDDATVAIRSAINNLIVELIRGTGSYNRSSFESSSGLVWTS
notes: Tobacco mosaic virus (common strain) coat protein, residues 1-154; Gly155, Pro156, Ala157 and Thr158 deleted at the C-terminus; no tag cleavage is described; Oligomeric state depends on buffer: monomer and dimer, 20S, disks, four-layer aggregate, rods; also called genetically engineered TMV CP; truncated TMV CP; source: E. coli BL21 (DE3) RIL, purified (HisTrap, gel filtration on superdex 200); …
B2: wild type TMV CP (tobacco mosaic virus coat protein) (natural protein)
chain: SYSITTPSQFVFLSSAWADPIELINLCTNALGNQFQTQQARTVVQRQFSEVWKPSPQVTVRFPDSDFKVYRYNAVLDPLVTALLGAFDTRNRIIEVENQANPTTAETLDATRRVDDATVAIRSAINNLIVELIRGTGSYNRSSFESSSGLVWTSGPAT
notes: also called WT TMV CP; wild TMV CP

Assays:
[1] = molecular target: the molecule itself; assay: SEC; freshly purified protein, 20 mM sodium phosphate, 100 mM NaCl, pH 8.0; superdex 200, 4°C
[2] = molecular target: the molecule itself; assay: native gel or EMSA; native-PAGE on ice (4% stacking, 17% separating gel, Tris-Gly pH 8.8); samples equilibrated overnight in 10 mM PB pH 7.2, 100 mM NaCl

Row | Protein | stoichiometry N [1] | binding result [2]
1 | B1 | 2 | 
2 | B2 |  | binds
